Target: the molecule itself
Test: SEC

B1: YgbT, purified full-length protein (natural protein, E. coli, UniProt Q46896 1-305, looked up)
chain: MTWLPLNPIPLKDRVSMIFLQYGQIDVIDGAFVLIDKTGIRTHIPVGSVACIMLEPGTRVSHAAVRLAAQVGTLLVWVGEAGVRVYASGQPGGARSDKLLYQAKLALDEDLRLKVVRKMFELRFGEPAPARRSVEQLRGIEGSRVRATYALLAKQYGVTWNGRRYDPKDWEKGDTINQCISAATSCLYGVTEAAILAAGYAPAIGFVHTGKPLSFVYDIADIIKFDTVVPKAFEIARRNPGEPDREVRLACRDIFRSSKTLAKLIPLIEDVLAAGEIQPPAPPEDAQPVAIPLPVSLGDAGHRSS
  stoichiometry N: 2
